According to US20250026849A1 (ARCELLX, published 2025):

T1: P26 (human, UniProt P02771 381-609, limits assumed)
T1 construct: also called AFP p26
T1 sequence: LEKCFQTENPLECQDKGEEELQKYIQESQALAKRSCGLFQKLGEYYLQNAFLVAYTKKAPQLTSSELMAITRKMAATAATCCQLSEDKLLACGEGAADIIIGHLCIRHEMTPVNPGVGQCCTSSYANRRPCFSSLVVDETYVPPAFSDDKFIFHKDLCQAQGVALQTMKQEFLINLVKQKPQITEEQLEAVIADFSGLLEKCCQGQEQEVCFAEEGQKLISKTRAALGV

B1: D domain SEQ ID NO: 939 (designed binder)
chain: MGSWVLFKQELAWIKWLLEALGGSEAELAAFEEQIARFEHDLQKYKGKGNPEVEALRKEAAAIRDELQAYRHN
B2: D domain SEQ ID NO: 942 (designed binder)
chain: MGSWLLFKSELAWIKWYLEALGGSEAELAEFEWNIAEFEKNLQKYKGKGNPEVEALRKEAAAIRDELQAYRHN
B3: D domain SEQ ID NO: 941 (designed binder)
chain: MGSWFLFKSELAWIKWRLEALGGSEAELAYFEYQIAEFEFWLQSYKGKGNPEVEALRKEAAAIRDELQAYRHN
B4: D domain SEQ ID NO: 943 (designed binder)
chain: MGSWLLFKSDLAWIKWRLEALGGSEAELAEFEESIAMFEHWLQEYKGKGNPEVEALRKEAAAIRDELQAYRHN
B5: D domain SEQ ID NO: 940 (designed binder)
chain: MGSWVLFKQELAWIKWYLEALGGSEAELAAFEWEIAAFEQRLQIYKGKGNPEVEALRKEAAAIRDELQAYRHN
B6: D domain SEQ ID NO: 944 (designed binder)
chain: MGSWLYFKSDLAWIKWRLEALGGSEAELADFEEAIAEFEQALQIYKGKGNPEVEALRKEAAAIRDELQAYRHN
B7: D domain SEQ ID NO: 935 (designed binder)
chain: MGSWVLFKDYLADIKHYLEALGGSEAELANFEHLIANFEGDLQTYKGKGNPEVEALRKEAAAIRDELQAYRHN
B8: D domain SEQ ID NO: 931 (designed binder)
chain: MGSWFYFKYELAWIKHWLEALGGSEAELASFETHIAFFEHQLQYYKGKGNPEVEALRKEAAAIRDELQAYRHN
B9: D domain SEQ ID NO: 945 (designed binder)
chain: MGSWKLFKYELAWIKWRLEALGGSEAELADFEASIAQFEKYLQTYKGKGNPEVEALRKEAAAIRDELQAYRHN
B10: D domain SEQ ID NO: 946 (designed binder)
chain: MGSWYLFKNELAWIKWRLEALGGSEAELADFEMVIAMFEDHLQEYKGKGNPEVEALRKEAAAIRDELQAYRHN
B11: D domain SEQ ID NO: 932 (designed binder)
chain: MGSWADFKWTLAYIKHRLEALGGSEAELAFFEMEIAYFEQSLQNYKGKGNPEVEALRKEAAAIRDELQAYRHN
B12: D domain SEQ ID NO: 930 (designed binder)
chain: MGSWLYFKYNLAVIKHWLEALGGSEAELAIFEMSIADFEYELQWYKGKGNPEVEALRKEAAAIRDELQAYRHN
B13: D domain SEQ ID NO: 934 (designed binder)
chain: MGSWENFKDTLAWIKEYLEALGGSEAELAGFEHRIAIFEHYLQYYKGKGNPEVEALRKEAAAIRDELQAYRHN
B14: D domain SEQ ID NO: 929 (designed binder)
chain: MGSWHHFKYFLADIKSILEALGGSEAELAIFEVQIAYFEDLLQSYKGKGNPEVEALRKEAAAIRDELQAYRHN
B15: D domain SEQ ID NO: 933 (designed binder)
chain: MGSWAYFKGQLAYIKSGLEALGGSEAELAYFELRIAYFEHWLQNYKGKGNPEVEALRKEAAAIRDELQAYRHN
B16: D domain SEQ ID NO: 937 (designed binder)
chain: MGSWEHFKVELAGIKAYLEALGGSEAELALFEWAIADFESILQDYKGKGNPEVEALRKEAAAIRDELQAYRHN
B17: D domain SEQ ID NO: 938 (designed binder)
chain: MGSWIYFKDELAGIKKYLEALGGSEAELAMFEVAIADFEAILQKYKGKGNPEVEALRKEAAAIRDELQAYRHN
B18: D domain SEQ ID NO: 936 (designed binder)
chain: MGSWSLFKHRLANIKVYLEALGGSEAELADFETFIAYFEKDLQEYKGKGNPEVEALRKEAAAIRDELQAYRHN

molecular target: T1, P26; experiment: ELISA, format not described; set-up: unit not given here

First: B1
Second: B2
The ELISA_avg of the first is higher: 29.5 for the first, 25.7 for the second.

Compared with B3, B4 is higher in ELISA_avg: 25.8 for the first, 33.3 for the second.

Going from B5 to B6, the ELISA_avg falls from 22.5 to 21.2.

First: B7
Second: B8
The ELISA_avg of the first is higher: 13.8 for the first, 13.7 for the second.

Going from B9 to B10, the ELISA_avg rises from 23.4 to 31.1.

Going from B11 to B12, the ELISA_avg falls from 31.5 to 13.3.

First: B13
Second: B14
The ELISA_avg of the first is higher: 19.2 for the first, 8 for the second.

Going from B15 to B16, the ELISA_avg rises from 11.4 to 18.1.

Compared with B17, B18 is higher in ELISA_avg: 15.9 for the first, 19.6 for the second.
